Test results: patent US20260258115A1
Positions count from the first letter of the chain named.

B1: ADI-41253 (antibody, V domains shown)
VH: EVQLVQSGPGLVKPSETLSLTCTVSGDSISSSDYSYYWGWIRQPPGKGLEWIASLSYSGKTYSQSSLKSRVIISVDTSKKQFSLKLSSVTAADTAVYYCAVTRCYVCTSEGDSFDMWGQGTMVTVSS
VL: DIVLTQTPGTLSLSPGERATLSCRASQSISGNYLAWYQHKPGQAPRLLIYGASTRATGIPDRFSGSGSGTDFPLTISRLEPEDFAVYYCQQYATSPYTFGQGTKVDIK
B2: ADI-41238 (antibody, V domains shown)
VH: EVQLLESGGGLVKPGGSLRLSCAASGFTFRDYYMSWIRQAPGKGLEWVSYISSSSSYTEYADSVKGRFTISRDNAKKSLYLQMNSLRTEDTAVYYCARVITQAGTGTTYYMDVWGKGTTVTVSS
VL: QSVLTQPPSVSGAPGQRVTISCTGSSSNIGTGYDVHWYQQLPGTAPKLLIYANNNRPSGVPDRFSGSKSGTSASLAITGLQAEDEADYYCQSYDSSLSLVFGGGTKLTVL
B3: ADI-41246 (antibody, V domains shown)
VH: EVQLLESGPGLVKPSETLSLTCIVSGGSISSYNWNWIRQPPGKGLEWIGYIYNSGSTNYNPSLKSRVTISVDTSKNQFSLKLSSVTAADTAVYYCARYFDYGSGGFDYWGQGTLVTVSS
VL: ETTLTQSPGTLSLSPGERATLSCRASQSVTSTYLAWYQQKPGQAPRLLIYGASSRATGIPDRFSGSGSGTDFTLTISRLEPEDFAVYYCQQFDSSLTFGGGTKVEIK
B4: ADI-41237 (antibody, V domains shown)
VH: EVQLVESGGGLVKPGGSLRLSCAASGFTFSDYYMNWIRQAPGKGLEWVSDISPSSSYTNYADSVKGRFTISRDNAKNSLYLQMNSLRAEDTAMYYCARRGSCTGGVCSFDYWGQGTLVTVSS
VL: QPGLTQPPSVSGAPGQRVTISCTGSSSNIGAGYDVNWYQQLPGTAPKLLIYDNSNRPSGVPDRFSGSKSGTSASLAITGLQAEDEADFYCQSYDSSLSGFVFGTGTKVTVL
B5: ADI-41245 (antibody, V domains shown)
VH: QVQLVESGGGLVKPGGSLRLSCAASGFSFSAYYMSWIRQAPGKGLEWISNISGGSSYANYADSVEGRFTISRDNAKNSLYLQMNSLRAEDTAVYYCAREFQTYYYMDVWGKGTTVTVSS
VL: B4 VL with G3V, D34E, N36H, D52G, S54N, F88Y, F100S, T104G, V108L
B6: ADI-41251 (antibody, V domains shown)
VH: EVQLVESGGGLVKPGGSLRLSCAASGFTFSDYYMTWIRQAPGKGLEWVSNISGGSSYTNYADSVKGRFTISRDNAKNSVYLQMNSLRAEDTAVYYCARVGCSGGVCNFFLDYWGQGTLVTVSS
VL: B4 VL with P2S, G3V, N36H, S54T, F88Y, F100Y
B7: ADI-41257 (antibody, V domains shown)
VH: QVQLVESGAEVKKPGSSVKVSCKASEGTFSSYGISWVRQAPGQGPEWMGEINPMFGTAKYAQKFQGRVTITVDESTSTADMELSSLTSEDTAVYYCAREFLGQCSETNCPTPSRHLDYWGQGTLVTVSS
VL: EIVMTQSPSSLSASVGDRVTITCRASRTISSYLNWYQQKPGKAPKLLIYATSNLQSGVPSRFSGSGSGADFTLTISSLQPEDFATYYCQQTYSTPGFGPGTKVDIK
B8: ADI-41254 (antibody, V domains shown)
VH: EVQLVESGGGLVQSGGSLRLSCAASGFTFSSYEMNWVRQAPGKGLEWVSYTTNNGRTIYYADSVKGRFTISRDNAKNSLFLQMNGLRAEDTAVYYCARGIQFSRVDYAMDVWGQGTTVTVSS
VL: SYELTQPPSVSGTPGQRITISCSGSSSNIASNTVNWYQHLPGTAPKLLIYSDNQRPSGVPDRFSGSKSGTSASLAISGLQSEDEADYYCAIWDDSLNASYVFGTGTKLTVL

Each binder was assayed against RSV prefusion F (preF, DS-Cav1) (Respiratory syncytial virus) (assay: BLI, IgG on sensor, 100 nM antigen).

B1 and B2 are within 1.5-fold of each other in Kd: 1.11 nM for the first, 1.03 nM for the second.

First: B3
Second: B4
The Kd of the first is 3.9-fold higher: 3.08 nM for the first, 0.794 nM for the second.

B5 and B6 are within 1.5-fold of each other in Kd: 0.775 nM for the first, 0.593 nM for the second.

Going from B7 to B8, the Kd falls from 3.81 nM to 0.776 nM (4.9-fold).
